Laboratory results from patent US20220227882A1 (TRUSTEES OF TUFTS COLLEGE, published 2022).

T1: E444A (Homo sapiens, UniProt P78325)
T1 construct: expressed on HEK293 cells; also called human ADAM8 point mutant E444A
T1 sequence (ADAM8, looked up): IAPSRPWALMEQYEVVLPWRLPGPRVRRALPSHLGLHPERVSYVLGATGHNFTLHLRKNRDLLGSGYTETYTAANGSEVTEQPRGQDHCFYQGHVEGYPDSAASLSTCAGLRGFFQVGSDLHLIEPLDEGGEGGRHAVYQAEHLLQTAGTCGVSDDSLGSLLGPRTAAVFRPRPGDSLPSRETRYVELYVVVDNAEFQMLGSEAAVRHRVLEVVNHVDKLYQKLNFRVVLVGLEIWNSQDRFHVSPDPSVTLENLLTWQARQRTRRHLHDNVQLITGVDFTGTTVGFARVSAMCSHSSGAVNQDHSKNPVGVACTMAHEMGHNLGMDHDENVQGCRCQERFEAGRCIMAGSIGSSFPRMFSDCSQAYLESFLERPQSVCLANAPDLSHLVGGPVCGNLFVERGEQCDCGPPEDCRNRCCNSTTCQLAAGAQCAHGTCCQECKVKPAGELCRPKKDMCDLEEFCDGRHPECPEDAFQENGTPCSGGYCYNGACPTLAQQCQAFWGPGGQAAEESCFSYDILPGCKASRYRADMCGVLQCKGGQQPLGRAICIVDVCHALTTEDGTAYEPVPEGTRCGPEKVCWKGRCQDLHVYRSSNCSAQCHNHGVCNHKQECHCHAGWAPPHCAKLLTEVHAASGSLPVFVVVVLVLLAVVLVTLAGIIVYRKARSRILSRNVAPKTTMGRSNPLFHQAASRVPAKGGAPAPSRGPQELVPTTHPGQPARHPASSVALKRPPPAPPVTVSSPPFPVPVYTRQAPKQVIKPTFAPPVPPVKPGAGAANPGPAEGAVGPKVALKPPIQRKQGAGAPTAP

T2: V459A (Homo sapiens, UniProt P78325)
T2 construct: expressed on HEK293 cells; also called human ADAM8 point mutant V459A
T2 sequence (ADAM8, looked up): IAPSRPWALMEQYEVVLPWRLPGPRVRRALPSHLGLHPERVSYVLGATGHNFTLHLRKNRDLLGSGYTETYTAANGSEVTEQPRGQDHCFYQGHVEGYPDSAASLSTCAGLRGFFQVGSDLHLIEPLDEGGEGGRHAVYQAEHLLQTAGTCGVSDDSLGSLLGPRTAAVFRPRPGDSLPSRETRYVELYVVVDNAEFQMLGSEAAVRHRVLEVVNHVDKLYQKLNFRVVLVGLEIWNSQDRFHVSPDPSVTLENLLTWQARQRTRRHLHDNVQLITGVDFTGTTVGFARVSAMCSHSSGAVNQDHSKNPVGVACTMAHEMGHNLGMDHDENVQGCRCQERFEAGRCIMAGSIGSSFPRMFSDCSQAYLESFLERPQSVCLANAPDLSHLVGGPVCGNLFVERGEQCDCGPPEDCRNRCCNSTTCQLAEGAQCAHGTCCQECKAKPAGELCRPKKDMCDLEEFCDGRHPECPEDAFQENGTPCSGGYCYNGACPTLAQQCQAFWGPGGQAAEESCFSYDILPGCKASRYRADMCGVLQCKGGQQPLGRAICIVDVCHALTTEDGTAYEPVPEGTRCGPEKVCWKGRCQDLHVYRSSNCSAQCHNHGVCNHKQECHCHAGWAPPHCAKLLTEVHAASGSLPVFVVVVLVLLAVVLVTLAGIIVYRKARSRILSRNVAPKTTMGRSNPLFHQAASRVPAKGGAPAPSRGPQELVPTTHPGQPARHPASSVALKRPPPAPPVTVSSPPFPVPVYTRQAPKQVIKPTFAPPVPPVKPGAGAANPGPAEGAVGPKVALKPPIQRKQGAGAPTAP


What was measured:
[1] = target: T1, E444A; test: high-throughput flow cytometry, HEK293 cells with mutant ADAM8, high stringency; range in parentheses
Protocol: (§1) A variety of experimental parameters were optimized for high-throughput flow cytometry including blocking buffer, and primary and secondary antibody concentrations, to identify the optimal conditions for screening. Through these studies ADP2 and ADP13 were determined to be high affinity binding antibodies.
(§2) Thus, for these studies antigen-binding fragments (Fabs) of ADP2 and ADP13, which bind with lower affinity than the full antibody, were generated. In addition, higher binding stringency conditions were tested, such as increased pH, salinity, and temperature, and/or increased washing, to weaken binding sufficiently to allow identification of critical binding residues in flow cytometry. The final experimental flow cytometry conditions were: primary antibody incubation with ADP2 Fab (0.50 μg/ml), ADP13 Fab (5.00 μg/ml) and Control Ab (0.16 μg/ml) for 60 minutes in flow cytometry buffer containing 10% goat serum in PBS (Ca²⁺ and Mg²⁺ free). […] Samples were washed three times after primary antibody incubation and twice after secondary antibody incubation with PBS (Ca²⁺ and Mg′ free). Next, HEK293 cells expressing WT or mutated ADAM8 proteins or EV DNA were incubated with ADP2 or ADP13 Fabs or Control Ab at their optimal concentrations. Fab binding was detected using Alexa Fluor 488-conjugated secondary antibodies and mean cellular fluorescence determined using the Intellicyt iQue flow cytometry platform. […] This counter-screen strategy facilitates the exclusion of mutants that are locally misfolded or that have an expression defect. Binding of each test Fab to each mutant clone in the alanine scanning library was determined, in duplicate, by high-throughput flow cytometry.

[2] = target: T2, V459A; test: as above
Protocol: as §1, §2

Binder | Binding Reactivity (% WT) [1] [% WT] | Binding Reactivity (% WT) [2] [% WT]
ADP13 Fab (Fab, V domains shown) VH: EVQLQQSGPEMVKPGTSVKISCKASGYTFTDYYINWVKQSHGKSLEWIGDISPNIGGATYNPKFKGKAILTVDKSARTAYMELRSLTSEDSAVYCCTRGGSSYPYFYAMDYWGQGTSVTVSS VL: DIVMSQSPSSLAVSVGEKVTMSCKSSQSLLYSSNQKKYLAWYQQKPGQSPKLLIYWASTRESGVPDRFTGSGSGTDFTLTISSVKAEDLAVYYCQQFYSYPYTFGGGTKLEINR | 70.8 | 
ADP2 Fab (Fab, V domains shown) VH: EVKLVESGGGLVQPGGSLSLSCAASGFSFPDYYMSWVRQPPGKALEWLGFIRDSANGYTTEYIASVKGRFTFSRDNSQSILYLQMNALRAEDSATYYCARYSRYYGMDYWGQGTSVTVSS VL: SIVMTQTPKILLVSAGDRVTITCKASQTVNYDVAWYQQKPGQSPKPVIYFASNRYTGVPDRFTGSGFGTDFTFTISTVQAEDLAVYFCQQDYSAPWTFGGGTKLEIK |  | 55.6
